# From US20230051954A1 (published 2023)
# Substitutions are numbered along the chain they refer to. Names and notes keep the numbering of the source.
# T1: cynomolgus monkey (Macaca fascicularis) transferrin receptor 1 (cynomolgus monkey (Macaca fascicularis), UniProt Q5RDH6 89-760 (Pongo abelii entry), limits assumed)
# T1 construct: Recombinant protein used in ELISA and SPR; also called cTfR1; cyno TfR1
# T1 chain: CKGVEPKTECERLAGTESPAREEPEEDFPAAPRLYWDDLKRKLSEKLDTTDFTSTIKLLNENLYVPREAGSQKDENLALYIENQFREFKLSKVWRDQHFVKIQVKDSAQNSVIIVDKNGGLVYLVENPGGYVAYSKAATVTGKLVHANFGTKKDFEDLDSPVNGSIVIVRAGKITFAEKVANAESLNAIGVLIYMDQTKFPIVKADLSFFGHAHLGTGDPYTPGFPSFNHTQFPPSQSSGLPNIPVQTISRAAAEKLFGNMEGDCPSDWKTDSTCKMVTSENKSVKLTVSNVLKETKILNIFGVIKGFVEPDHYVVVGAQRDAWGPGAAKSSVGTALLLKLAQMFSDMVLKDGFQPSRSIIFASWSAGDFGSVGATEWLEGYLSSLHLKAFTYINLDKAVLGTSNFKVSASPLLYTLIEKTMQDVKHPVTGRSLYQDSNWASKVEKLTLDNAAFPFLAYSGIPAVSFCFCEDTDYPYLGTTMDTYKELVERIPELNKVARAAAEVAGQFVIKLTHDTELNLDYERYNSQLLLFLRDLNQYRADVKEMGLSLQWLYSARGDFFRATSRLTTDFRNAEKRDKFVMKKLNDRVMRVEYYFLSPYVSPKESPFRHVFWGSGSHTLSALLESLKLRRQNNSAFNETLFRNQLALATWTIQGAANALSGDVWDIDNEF
# B1: 5H12 (VH5-C33D/Vk4) Fab conjugated to DMPK-targeting oligonucleotide ASO300 (Fab, V domains shown)
# VH: QVQLVQSGAEVKKPGASVKVSCKASGYSFTDYDINWVRQAPGQGLEWMGWIYPGSGNTRYSERFKGRVTITRDTSASTAYMELSSLRSEDTAVYYCAREDYYPYHGMDYWGQGTLVTVSS
# VL: DIVMTQSPDSLAVSLGERATINCRASESVDGYDNSFMHWYQQKPGQPPKLLIFRASNLESGVPDRFSGSGSGTDFTLTISSLQAEDVAVYYCQQSSEDPWTFGQGTKLEIKR
# notes: Fab covalently conjugated to ASO300; also called 5H12 (VH5-C33D/Vk4) conjugate
# B2: 5H12 (VH5-C33Y/Vk4) Fab conjugated to DMPK-targeting oligonucleotide ASO300 (Fab, V domains shown)
# VH: B1 VH with D33Y
# VL: B1 VL
# notes: Fab covalently conjugated to ASO300
# B3: 3A4 (VH3-N54S/Vk4) Fab conjugated to DMPK-targeting oligonucleotide ASO300 (Fab, V domains shown)
# VH: EVQLVQSGSELKKPGASVKVSCTASGFNIKDDYMYWVRQPPGKGLEWIGWIDPESGDTEYASKFQDRVTVTADTSTNTAYMELSSLRSEDTAVYYCTLWLRRGLDYWGQGTLVTVSS
# VL: DIVMTQSPLSLPVTPGEPASISCRSSKSLLHSNGYTYLFWFQQRPGQSPRLLIYRMSNLASGVPDRFSGSGSGTDFTLKISRVEAEDVGVYYCMQHLEYPFTFGGGTKVEIKR
# notes: Fab covalently conjugated to ASO300; also called 3A4 (VH3-N54S/Vk4) conjugate
# B4: 3A4 (VH3/Vk4) Fab conjugated to DMPK-targeting oligonucleotide ASO300 (Fab, V domains shown)
# VH: B3 VH with S55N
# VL: B3 VL
# notes: Fab covalently conjugated to ASO300; also called 3A4 (VH3/Vk4) conjugate
# B5: 3M12 (VH3/Vk2) Fab conjugated to DMPK-targeting oligonucleotide ASO300 (Fab, V domains shown)
# VH: QVQLQESGPGLVKPSQTLSLTCSVTGYSITSGYYWNWIRQPPGKGLEWMGYITFDGANNYNPSLKNRVSISRDTSKNQFSLKLSSVTAEDTATYYCTRSSYDYDVLDYWGQGTTVTVSS
# VL: DIQMTQSPSSLSASVGDRVTITCRASQDISNFLNWYQQKPGQPVKLLIYYTSRLHSGVPSRFSGSGSGTDFTLTISSLQPEDFATYFCQQGHTLPYTFGQGTKLEIKR
# notes: Fab covalently conjugated to antisense oligonucleotide ASO300 (linker of Formula (C)); also called 3M12 (VH3/Vk2) conjugate; DMPK oligo conjugate
# B6: 3M12 (VH4/Vk3) Fab conjugated to DMPK-targeting oligonucleotide ASO300 (Fab, V domains shown)
# VH: B5 VH with S23T, M49I
# VL: B5 VL with F87Y
# notes: Fab covalently conjugated to ASO300; also called 3M12 (VH4/Vk3) conjugate; DMPK oligo conjugate
# B7: 3A4 (VH3-N54T/Vk4) Fab conjugated to DMPK-targeting oligonucleotide ASO300 (Fab, V domains shown)
# VH: B3 VH with S55T
# VL: B3 VL
# notes: Fab covalently conjugated to ASO300; also called 3A4 (VH3-N54T/Vk4) conjugate
# B8: 5H12 (VH5-C33Y/Vk3) Fab conjugated to DMPK-targeting oligonucleotide ASO300 (Fab, V domains shown)
# VH: B1 VH with D33Y
# VL: B1 VL with M4L, G72R
# notes: Fab covalently conjugated to ASO300; also called 5H12 (VH5-C33Y/Vk3) conjugate
# Target: T2, recombinant human transferrin receptor 1 (human, UniProt P02786 89-760)
# T2 construct: Recombinant protein used in ELISA and SPR; also called hTfR1; huTfR1
# T2 sequence (P02786 89-760 limits assumed): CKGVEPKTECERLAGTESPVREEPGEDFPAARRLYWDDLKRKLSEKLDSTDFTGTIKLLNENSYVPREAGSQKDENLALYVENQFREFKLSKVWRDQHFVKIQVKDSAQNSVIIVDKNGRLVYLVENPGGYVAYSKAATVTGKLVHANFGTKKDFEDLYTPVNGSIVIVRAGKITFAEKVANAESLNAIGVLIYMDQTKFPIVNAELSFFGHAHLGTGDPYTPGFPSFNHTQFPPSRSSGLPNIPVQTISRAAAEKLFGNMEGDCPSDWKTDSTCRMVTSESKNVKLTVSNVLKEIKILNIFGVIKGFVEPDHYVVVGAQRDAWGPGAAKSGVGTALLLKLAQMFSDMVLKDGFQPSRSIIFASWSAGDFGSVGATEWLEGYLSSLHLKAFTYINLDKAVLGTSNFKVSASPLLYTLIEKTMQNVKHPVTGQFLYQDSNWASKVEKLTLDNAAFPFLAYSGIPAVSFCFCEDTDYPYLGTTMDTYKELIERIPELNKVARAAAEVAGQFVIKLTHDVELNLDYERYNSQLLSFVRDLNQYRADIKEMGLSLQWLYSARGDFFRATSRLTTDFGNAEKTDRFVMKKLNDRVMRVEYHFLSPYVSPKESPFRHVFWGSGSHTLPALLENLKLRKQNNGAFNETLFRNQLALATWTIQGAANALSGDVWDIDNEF
# Test: ELISA, DMPK oligo (ASO300) conjugate binding to hTfR1
row,EC50,Binder
1,110 nM,B1
2,13.9 nM,B2
3,2.71 nM,B3
4,2.84 nM,B4
5,1.14 nM,B5
6,1.18 nM,B6

# Target: T1, cynomolgus monkey (Macaca fascicularis) …
# Test: ELISA, DMPK oligo (ASO300) conjugate binding to cyno TfR1
row,EC50,Binder
1,10.2 nM,B1
2,13.9 nM,B2
3,4.1 nM,B3
4,5.12 nM,B7
5,7.59 nM,B4
6,2.26 nM,B5
7,1.85 nM,B6

# Target: T1, cynomolgus monkey (Macaca fascicularis) …
# Test: ELISA, plate-coated cyno TfR1, Fab-ASO300 conjugate; printed as 'Conjugate binding affinity ELISA'
row,EC50,Binder
1,10.2 nM,B1
2,2.3 nM,B8
3,7.8 nM,B3
4,4.7 nM,B7
5,7.6 nM,B4
6,2.9 nM,B5
7,2.1 nM,B6

# Target: T2, recombinant human transferrin receptor 1
# Test: ELISA, plate-coated human TfR1, Fab-ASO300 conjugate; printed as 'Conjugate binding affinity ELISA'
row,EC50,Binder
1,110 nM,B1
2,23.7 nM,B2
3,33.4 nM,B8
4,2.9 nM,B3
5,2.8 nM,B7
6,2.8 nM,B4
7,2.2 nM,B5
8,1.7 nM,B6
